Source: doi:10.1101/2024.10.14.618152

Target: Zt-KP4-1 (Zt-NIP1) (Zymoseptoria tritici)
Assay: SEC

Zt-KP4-1 (Zt-NIP1) (natural protein)
stoichiometry N: 2
